{"source": "patent US9844563B2", "about": "“Compositions, kits, and methods to induce acquired cytoresistance using stress protein inducers” (FRED HUTCHINSON CANCER RESEARCH CENTER, priority 2014, dated 2017)", "key": {"HO-1 mRNA": {"tested_on": "HO-1 mRNA", "assay": "Renal cortical HO-1 mRNA (RT-PCR) after IV myoglobin, SnPP or both", "assay_type": "in vivo, mice", "excerpt": "(§1) The Glycerol Model of AKI. This is a widely used model of rhabdomyolysis-induced AKI that has been employed worldwide for 50 years. The model was used to test whether prophylactic interventions confer protection against AKI. Basically, the protocol is as follows: Male CD-1 mice (35-45 grams), obtained from Charles River Laboratories, Wilmington, Mass. were studied. Mice were maintained under standard vivarium conditions and generally housed for 1-3 weeks prior to study. The mice were placed in a cylindrical restraining cage, and then were given a tail vein injection of the test substances (see below) or test substance vehicle. The mice were then returned to their cages. Eighteen hours (hrs) later, the mice were briefly anesthetized by isoflurane inhalation, and given an intramuscular injection of hypertonic (50%) glycerol in a dose of 9 ml/Kg body weight. The dose is divided in two, with half injected into the muscle of each of the hind limbs. The mice were then returned to their cages. Eighteen hrs later, the mice were deeply anesthetized with pentobarbital (50-100 mg/Kg), the abdominal cavity was opened through a midline abdominal incision, a blood sample was obtained from the abdominal vena cava and the kidneys were resected. A kidney cross section was obtained and fixed in formalin for subsequent histologic analysis. The terminal blood samples were analyzed for BUN and creatinine, using commercially available assay kits. The remaining kidney tissue was subjected to cortical dissection, and the cortical tissues were then extracted for protein and RNA. The protein samples were saved for analysis of HO-1 levels, and the RNA samples were subjected to RT-PCR to quantify HO-1 mRNA as well as levels of other stress gene mRNAs (e.g. NGAL, haptoglobin, hemopexin, hepicidin).\n(§2) Myoglobin+SnPP: To 5 mg of dry myoglobin was added 0.9 ml of PBS+0.1 ml of a stock SnPP solution (50 umole/ml). The resulting final concentrations were 5 mg/ml myoglobin+5 umoles/ml of SnPP. The tail vein was injected with 200 ul of this solution, which equals 1 mg myoglobin+1 umole SnPP. […]\n(§3) Four hr post myoglobin vs myoglobin+SnPP vs SnPP alone experiments. To confirm that the myoglobin+SnPP has a synergistic effect in inducing HO-1 mRNA and HO-1 protein levels, each of the above combinations have been administered alone via tail vein injection. Four hrs later, the mice were sacrificed as noted above and the kidneys were harvested for assessment of HO-1 mRNA and protein levels. For additional information regarding methods, see Zager et al., Am J Physiol Renal Physiol. 2014 Jul. 30. Pii."}, "HO-1": {"tested_on": "HO-1", "assay": "Renal cortical HO-1 protein (ELISA) after IV myoglobin, SnPP or both", "assay_type": "in vivo, mice", "conditions": "1 mg Myoglobin, 1 μmole SnPP", "excerpt": "as §1, §2\nas §3, with “Four hrs later, the mice were sacrificed as noted above and the kidneys were harvested for assessment of HO-1 mRNA and protein levels.” left out"}, "Haptoglobin": {"tested_on": "Haptoglobin", "assay": "Haptoglobin protein expression after SQ myoglobin with or without PEG", "assay_type": "in vivo, mice", "conditions": "4 hour time point after SQ injection", "method": "Myoglobin+PEG: To a stock solution of 20 mg/ml Mgb in PBS was added 100 mg/ml of PEG-6000; […]. This was administered as a subcutaneous injection in the dorsal neck (250 ul total injection). For combined Mgb/PEG+SnPP, SnPP was added to the above in a concentration of 3 mg/ml."}, "[1]": {"parameters": "species or system mice", "conditions": "mouse, in vivo, iv"}, "HK-2 cells": {"tested_on": "HK-2 cells", "assay": "HK-2 cell injury by MTT assay", "assay_type": "cell-based", "conditions": "10 mg/mL, 18 hr incubation, compared to control incubated cells", "method": "HK-2 cells (a proximal tubule cell line derived from normal human kidney) were incubated in keratinocyte serum free medium either under normal (control) conditions or in the presence of 10 mg/mL horse skeletal muscle myoglobin or nitrited myoglobin (produced by equimolar Na nitrite addition to 10 mg/ml myoglobin). After 18 hr incubations, the severity of cell injury (% cell death) was assessed by MTT assay. Myoglobin induced 40% cell death (40% decrease in MTT cell uptake), compared to control incubated cells. Nitrite binding to myoglobin reduced cell death by 75%. Thus, nitrite binding is able to reduce myoglobin's cytotoxic effects."}}, "note": "Several values for one entry are separate records, joined by “and”; a condition that tells them apart may be missing. Identical values can stand only once.", "data": [{"molecule": "myoglobin (protein, listed as Homo Sapiens, Lyophilized horse skeletal muscle myoglobin (Sigma Chemicals) used as the test agent) MGLSDGEWQLVLNVWGKVEADIPGHGQEVLIRLFKGHPETLEKFDKFKHLKSEDEMKASEDLKKHGATVLTALGGILKKKGHHEAEIKPLAQSHATKHKIPVKYLEFISECIIQVLQSKHPGDFGADAQGAMNKALELFRKDMASNYKELGFQG", "values": [{"measurement": "HO-1 mRNA induction (HO-1/GAPDH mRNA), Average", "setting": "HO-1 mRNA; 4 hrs post IV injection, average", "result": 3.93, "unit": "HO-1/GAPDH mRNA"}, {"measurement": "HO-1 mRNA induction (HO-1/GAPDH mRNA), individual mice", "setting": "HO-1 mRNA; 4 hrs post IV injection, single animals", "result": "7.78 HO-1/GAPDH mRNA and 2.93 HO-1/GAPDH mRNA and 2.58 HO-1/GAPDH mRNA and 2.41 HO-1/GAPDH mRNA"}, {"measurement": "HO-1 mRNA induction overnight post injection, Average", "setting": "HO-1 mRNA; Ovnt (roughly 18 hrs) IV, 1 mg Myoglobin, 1 μmole SnPP, average", "result": 0.58, "unit": "HO-1/GAPDH mRNA"}, {"measurement": "HO-1 mRNA induction overnight post injection, individual subjects", "setting": "HO-1 mRNA; Ovnt (roughly 18 hrs) IV, 1 mg Myoglobin, 1 μmole SnPP, single animals", "result": "0.71 HO-1/GAPDH mRNA and 0.53 HO-1/GAPDH mRNA and 0.51 HO-1/GAPDH mRNA"}, {"measurement": "HO-1 Protein Expression (by ELISA), Average", "setting": "HO-1; Cortex, 4 hr IV, average", "result": 45.4, "unit": "ng HO-1/mg protein"}, {"measurement": "HO-1 Protein Expression (by ELISA), individual mice", "setting": "HO-1; Cortex, 4 hr IV, single animals", "result": "36.0 ng HO-1/mg protein and 40.7 ng HO-1/mg protein and 40.2 ng HO-1/mg protein and 64.7 ng HO-1/mg protein"}, {"measurement": "HO-1 protein induction overnight post injection, Average", "setting": "HO-1; Ovnt (roughly 18 hrs) IV, average, in ng/mg protein", "result": 36.7}, {"measurement": "HO-1 protein induction overnight post injection, individual subjects", "setting": "HO-1; Ovnt (roughly 18 hrs) IV, single animals, in ng/mg protein", "result": "50.6 and 34.9 and 24.6"}, {"measurement": "Haptoglobin Protein Expression", "setting": "Haptoglobin", "result": "32.7 ± 6.3", "unit": "ng/mg protein"}, {"measurement": "Plasma LDH, Average", "setting": "[1]", "result": 4.47, "unit": "Absorbance U LDH/ml"}, {"measurement": "cell death (decrease in MTT cell uptake)", "setting": "HK-2 cells", "result": 40, "unit": "%"}]}]}
